This passage reports stoichiometry N results from PMC8500918.

The target in the assay is Cadherin-11 extracellular domain 1 (EC1), wild type. In words: NMR.

Chain of Cadherin-11 extracellular domain 1 (EC1), wild type (P55288 1-98): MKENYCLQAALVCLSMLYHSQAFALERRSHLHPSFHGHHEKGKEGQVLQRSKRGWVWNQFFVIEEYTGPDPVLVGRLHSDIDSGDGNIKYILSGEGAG

A word on the stoichiometry N: it is the number of molecules, sites or subunits per partner or assembly. Take “Cadherin-11 extracellular domain 1 (EC1), wild type (domain or fragment)”: the stoichiometry N turned out to be 2.
